Measurements from US20190025321A1 (WHITEHEAD INSTITUTE FOR BIOMEDICAL RESEARCH, published 2019).
One block for each binder: values may come before it.

B1: HA-metap2 (other, UniProt P50579 1-478, looked up, not shown: small tags and cut ends)
chain: MAGVEEVAASGSHLNGDLDPDDREEGAASTAEEAAKKKRRKKKKSKGPSAAGEQEPDKESGASVDEVARQLERSALEDKERDEDDEDGDGDGDGATGKKKKKKKKKRGPKVQTDPPSVPICDLYPNGVFPKGQECEYPPTQDGRTAAWRTTSEEKKALDQASEEIWNDFREAAEAHRQVRKYVMSWIKPGMTMIEICEKLEDCSRKLIKENGLNAGLAFPTGCSLNNCAAHYTPNAGDTTVLQYDDICKIDFGTHISGRIIDCAFTVTFNPKYDTLLKAVKDATNTGIKCAGIDVRLCDVGEAIQEVMESYEVEIDGKTYQVKPIRNLNGHSIGQYRIHAGKTVPIVKGGEATRMEEGEVYAIETFGSTGKGVVHDDMECSHYMKNFDVGHVPIRLPRTKHLLNVINENFGTLAFCRRWLDRLGESKYLMALKNLCDLGIVDPYPPLCDIKGSYTAQFEHTILLRPTCKEVVSRGDDY
notes: Negative control of the co-immunoprecipitations; also called metap2 control protein

Assays:
[1] = molecular target: T1, endogenous GATOR2 complex (Seh1L, WDR59, WDR24, Sec13 and Mios) (human, UniProt Q9NXC5 1-875; Q96S15 1-790; Q6PJI9 1-974; P55735 2-322; Q96EE3 1-360, limits assumed); experiment: co-immunoprecipitation, anti-HA IP from transfected HEK-293T cells starved of all amino acids 50 min, immunoblot for endogenous mios
T1 construct: Five-subunit complex; In most blots its presence is read from the mios band; also called detected by mios
Method: FIG. 8A depicts validation of the anti-serum used to detect endogenous CASTOR2. Lysates were prepared from HEK-293T lines stably expressing the indicated shRNAs and analyzed by immunoblotting for levels of indicated proteins. FIG. 8B depicts validation of the anti-serum used to detect endogenous CASTOR1. Lysates were prepared from HEK-293T stably lines expressing the indicated shRNAs and analyzed as in (8C). The arrow denotes the band corresponding to endogenous CASTOR1. […] HEK-293T cells were cotransfected with the indicated cDNAs in expression vectors, starved of all amino acids for 50 minutes, and anti-HA immunoprecipitates were analyzed as in FIG. 1D. […] HEK-293T cells were cotransfected with the indicated cDNAs in expression vectors, starved of all amino acids for 50 minutes, and anti-HA immunoprecipitates were analyzed as in FIG. 1D.

HA-metap2 [2] = molecular target: B1; experiment: co-immunoprecipitation, anti-HA IP from transfected HEK-293T cells, immunoblot for endogenous CASTOR1
[3] = molecular target: T1, endogenous GATOR2 complex (Seh1L, …); experiment: co-immunoprecipitation, anti-FLAG IP of GATOR2 from a HEK-293T line with endogenously FLAG-tagged WDR59, immunoblot for endogenous CASTOR1
Method: (§1) FIG. 3A, FIG. 3B, FIG. 3C, FIG. 3D, FIG. 3E and FIG. 3F depict arginine regulates the interaction of GATOR2 with CASTOR1-homodimers and CASTOR1-CASTOR2 heterodimers in cells and in vitro. […] HEK-293T cells cotransfected with the indicated cDNAs were deprived of amino acids for 50 min or starved and restimulated with amino acids for 10 min. Anti-HA immunoprecipitates and cell lysates were analyzed by immunoblotting for levels of the indicated proteins. […] A HEK-293T cell line expressing endogenously FLAG-tagged WDR59 was treated as in (3A) and anti-FLAG immunoprecipitates were analyzed by immunoblotting for the indicated proteins. […] Cells were deprived of leucine, arginine, or all amino acids for 50 min, and restimulated for 10 min with the respective amino acids where indicated. Anti-HA immunoprecipitates were prepared and analyzed as in (3A). […] Anti-HA immunoprecipitates were prepared from HEK-293T cells expressing the indicated cDNAs and deprived of amino acids for 50 min. Indicated amino acids were added directly to the immunoprecipitates, which after re-washing, were analyzed as in (3A). […] The experiment was performed and analyzed as in (3D), except using the indicated concentrations of arginine. […] Anti-HA immunoprecipitates were prepared and analyzed as in (3A).

[4] = molecular target: T1, endogenous GATOR2 complex (Seh1L, …); experiment: co-immunoprecipitation, anti-HA IP from HEK-293T cells deprived 50 min of all amino acids, leucine or arginine, or restimulated 10 min; immunoblot for endogenous mios
Method: as §1

[5] = molecular target: complete GATOR2 complex, recombinant (WDR24-FLAG, WDR59, mios, sec13, seh1L co-expressed) (UniProt Q96S15 1-790; Q6PJI9 1-974; Q9NXC5 1-875; P55735 1-322; Q96EE3 1-360, limits assumed); experiment: co-immunoprecipitation, anti-FLAG IP (bait WDR24-FLAG) from co-transfected HEK-293T cells, immunoblot for HA-tagged CASTOR1
From the text: FIG. 7A, FIG. 7B, FIG. 7C, FIG. 7D, FIG. 7E and FIG. 7F depicts CASTOR1 and CASTOR2 homologs are present in vertebrates and invertebrates, and the CASTORs and Sestrins bind to distinct sites on GATOR2. […] Sequence alignments are colored with respect to sequence identity as in FIG. 1C. The first and second ACT domains are annotated above the alignment with blue and orange bars, respectively. […] The sequence alignment is annotated as in (7B). FIG. 7E depicts the GATOR2 components WDR24, mios, and seh1L form a minimal complex that is sufficient to co-immunoprecipitate CASTOR1. HEK-293T cells were cotransfected with the indicated cDNAs, and anti-FLAG immunoprecipitates were analyzed as in FIG. 1D.
Where indicated, for transient cotransfection experiments, 2 million HEK-293T cells were plated in 10 cm dishes and transfected 24 hrs later using the polyethylenimine method (Boussif et al., 1995) with the indicated pRK5-based expression vectors: 300 ng HA-metap2, 40 ng CASTOR1-HA, 80 ng CASTOR1-FLAG, 40 ng CASTOR2-HA, 80 ng CASTOR2-FLAG; 100 ng WDR24-FLAG, 100 ng WDR59, 100 ng mios, 150 ng sec13, 150 ng seh1L, 10 ng or 40 ng or 100 ng or 600 ng of myc-Sestrin2 or myc-CASTOR2; 2 ng FLAG-56K1, 15 ng or 60 ng HA-CASTOR2, 75 ng and 175 ng of CASTOR1-HA. The total amount of plasmid DNA in each transfection was normalized to 5 μg with empty pRK5. […]

HA-metap2 [6] = molecular target: B1; experiment: co-immunoprecipitation, anti-HA IP from transfected HEK-293T cells
GSK3β = molecular target: T2, GSK3β (human, UniProt P49841); experiment: control immunoprecipitation with an anti-GSK3β antibody from HEK-293T cells starved of or restimulated with amino acids
T2 construct: endogenous, untagged; also called endogenous GSK3β, control immunoprecipitation
Method: FIG. 9A, FIG. 9B, FIG. 9C, FIG. 9D and FIG. 9E depict arginine regulates the interaction of GATOR2 with CASTOR1-containing complexes in cells and in vitro. […] HEK-293T cells cotransfected with the indicated cDNAs and stably expressing the indicated shRNAs were deprived of amino acids in the cell media for 50 min. Anti-HA immunoprecipitates were analyzed by immunoblotting for the indicated proteins. […] HEK-293T cells were starved or restimulated with amino acids, and immunoprecipitates were prepared from these cells using an antibody directed against GSK3β or WDR24. Immunoprecipitates were analyzed by immunoblotting for the indicated proteins. […] Stable expression lines of HEK-293T cells stably expressing the denoted proteins were cotransfected with the indicated cDNAs and treated as in FIG. 3A. Anti-HA immunoprecipitates were analyzed by immunoblotting for the levels of indicated proteins. FIG. 9D depicts deprivation of arginine, but not leucine, is sufficient to promote the association of endogenous GATOR2 with recombinant CASTOR1-CASTOR2 heterodimers. HEK-293T cells cotransfected with the indicated cDNAs were treated and analyzed as in FIG. 3C. […] Anti-HA immunoprecipitates were prepared and analyzed as in FIG. 3E.

T2 sequence (P49841 whole entry): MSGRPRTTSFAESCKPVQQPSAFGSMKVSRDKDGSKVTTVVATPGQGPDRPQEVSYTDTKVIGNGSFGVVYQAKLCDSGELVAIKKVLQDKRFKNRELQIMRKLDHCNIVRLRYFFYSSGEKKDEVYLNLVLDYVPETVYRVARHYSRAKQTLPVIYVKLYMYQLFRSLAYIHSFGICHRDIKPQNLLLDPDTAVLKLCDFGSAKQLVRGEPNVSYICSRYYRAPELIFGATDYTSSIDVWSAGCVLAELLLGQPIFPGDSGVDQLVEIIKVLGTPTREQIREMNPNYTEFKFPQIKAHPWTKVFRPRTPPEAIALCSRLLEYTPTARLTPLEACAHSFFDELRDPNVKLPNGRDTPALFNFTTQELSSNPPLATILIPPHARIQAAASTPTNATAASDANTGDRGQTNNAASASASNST

Binder: B1
binding result [1]: no binding

B3: CASTOR1 homodimer (other, human, not shown: small tags and cut ends)
chain 1: MELHILEHRVRVLSVARPGLWLYTHPLIKLLFLPRRSRCKFFSLTETPEDYTLMVDEEGFKELPPSEFLQVAEATWLVLNVSSHSGAAVQAAGVTKIARSVIAPLAEHHVSVLMLSTYQTDFILVREQDLSVVIHTLAQEFDIYREVGGEPVPVTRDDSSNGFPRTQHGPSPTVHPIQSPQNRFCVLTLDPETLPAIATTLIDVLFYSHSTPKEAASSSPEPSSITFFAFSLIEGYISIVMDAETQKKFPSDLLLTSSSGELWRMVRIGGQPLGFDECGIVAQIAGPLAAADISAYYISTFNFDHALVPEDGIGSVIEVLQRRQEGLAS
chain 2: MELHILEHRVRVLSVARPGLWLYTHPLIKLLFLPRRSRCKFFSLTETPEDYTLMVDEEGFKELPPSEFLQVAEATWLVLNVSSHSGAAVQAAGVTKIARSVIAPLAEHHVSVLMLSTYQTDFILVREQDLSVVIHTLAQEFDIYREVGGEPVPVTRDDSSNGFPRTQHGPSPTVHPIQSPQNRFCVLTLDPETLPAIATTLIDVLFYSHSTPKEAASSSPEPSSITFFAFSLIEGYISIVMDAETQKKFPSDLLLTSSSGELWRMVRIGGQPLGFDECGIVAQIAGPLAAADISAYYISTFNFDHALVPEDGIGSVIEVLQRRQEGLAS
notes: also called CASTOR1-HA with CASTOR1-FLAG; CASTOR1-containing dimers
binding result [4]: binds

B4: recombinant CASTOR1 (Cellular Arginine Sensor for mTORC1; protein encoded by the GATS protein-like 3 gene) (other, human, UniProt Q8WTX7 1-329, looked up, not shown: small tags and cut ends)
chain: MELHILEHRVRVLSVARPGLWLYTHPLIKLLFLPRRSRCKFFSLTETPEDYTLMVDEEGFKELPPSEFLQVAEATWLVLNVSSHSGAAVQAAGVTKIARSVIAPLAEHHVSVLMLSTYQTDFILVREQDLSVVIHTLAQEFDIYREVGGEPVPVTRDDSSNGFPRTQHGPSPTVHPIQSPQNRFCVLTLDPETLPAIATTLIDVLFYSHSTPKEAASSSPEPSSITFFAFSLIEGYISIVMDAETQKKFPSDLLLTSSSGELWRMVRIGGQPLGFDECGIVAQIAGPLAAADISAYYISTFNFDHALVPEDGIGSVIEVLQRRQEGLAS
notes: Expressed from pRK5 vectors in HEK-293T cells; which tag was used depends on the experiment; also called GATSL3; CASTOR1-HA
binding result [5]: binds

Second part, the binder after the results:

binding result (HA-metap2 [2]): no binding | binding result [3]: binds
B2: endogenous CASTOR1 (other, human, UniProt Q8WTX7 1-329, looked up)
chain: MELHILEHRVRVLSVARPGLWLYTHPLIKLLFLPRRSRCKFFSLTETPEDYTLMVDEEGFKELPPSEFLQVAEATWLVLNVSSHSGAAVQAAGVTKIARSVIAPLAEHHVSVLMLSTYQTDFILVREQDLSVVIHTLAQEFDIYREVGGEPVPVTRDDSSNGFPRTQHGPSPTVHPIQSPQNRFCVLTLDPETLPAIATTLIDVLFYSHSTPKEAASSSPEPSSITFFAFSLIEGYISIVMDAETQKKFPSDLLLTSSSGELWRMVRIGGQPLGFDECGIVAQIAGPLAAADISAYYISTFNFDHALVPEDGIGSVIEVLQRRQEGLAS
notes: Detected with an anti-CASTOR1 antiserum; also called GATSL3

binding result (HA-metap2 [6]): no binding | binding result (GSK3β): no binding
B5: endogenous CASTOR2 (other, human, UniProt A6NHX0 1-329, looked up)
chain: MELHILEHRLQVASVAKESIPLFTYGLIKLAFLSSKTRCKFFSLTETPEDYTIIVDEEGFLELPSSEHLSVADATWLALNVVSGGGSFSSSQPIGVTKIAKSVIAPLADQNISVFMLSTYQTDFILVRERDLPFVTHTLSSEFTILRVVNGETVAAENLGITNGFVKPKLVQRPVIHPLSSPSNRFCVTSLDPDTLPAVATLLMDVMFYSNGVKDPMATGDDCGHIRFFSFSLIEGYISLVMDVQTQQRFPSNLLFTSASGELWKMVRIGGQPLGFDECGIVAQISEPLAAADIPAYYISTFKFDHALVPEENINGVISALKVSQAEKH
notes: Detected with an anti-CASTOR2 antiserum; also called GATSL2
